The values that follow come from the RNAGym collection of RNA variant scans (doi:10.1093/molbev/msab373).

B1: Azoarcus group I ribozyme (parent)
chain: GUGCCUUGCGCCGGGAAACCACGCAAGGGAUGGUGUCAAAUUCGGCGAAACCUAAGCGCCCGCCCGGGCGUAUGGCAACGCCGAGCCAAGCUUCGGCGCCUGCGCCGAUGAAGGUGUAGAGACUAGACGGCACCCACCUAAGGCAAACGCUAUGGUGAAGGCAUAGUCCAGGGAGUGGCGAAAGUCACACAAACCGG

In the data set the parent is B1. The data set can be described thus: reverse-splicing fitness (ratio to wild type); higher = more active; in vitro selection; Mg2+ level not given. Put shortly:
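An in vitro group I ribozyme library with randomized positions was T7-transcribed and gel-purified. In triplicate, 10 pmol RNA in EPPS pH 7.5 was reacted with 50 pmoles of a 30-nt RNA substrate for 1 h at 37 °C across several added MgCl2 levels (1–48 mM), then stopped with EDTA. Products were reverse transcribed from a substrate-complementary primer, PCR-amplified and sequenced (HiSeq 4000). Fitness is a variant's read proportion after selection over that before, normalised to wild type.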
For GUGCCUUGCGCCGGGAAACCACGCAAGGGAUGGUGUCAAAUUCGGCGAAACCUAAGCGCCCGCCCGGGCGUAUGGCAACGCUGAGCCAAGCUUCGGCGCCUGCGCCGAUGAAGGUGUAGCGACUAGACGGCACCCACCUAAGGCGAACGUUAUGGUGAAGGCAUAGUCCAGGGAGGGGCGAAAGUCACACAAACCGG [C82U A120C A145G C150U U176G], the reverse-splicing fitness is 0.00907.
In the case of GUGCCUUGCGCCGGGAAACCACGCAAGGGAUGGUGUCAAAUUCGGCGAAACCUAAGCGCCCGCCCGGGCGUAUGGCAACGCUGAGCCAAGCUUCGGCGCCUGCGCCGAUGAAGGUGUAGCGACUAGACGGCACCCACCUAAGGCGAACGUUAUGGUGAAGGCAUAGUCCAGGGAGCGGCGAAAGUCACACAAACCGG [C82U A120C A145G C150U U176C], the reverse-splicing fitness is 0.0637.
As to GUGCCUUGCGCCGGGAAACCACGCAAGGGAUGGUGUCAAAUUCGGCGAAACCUAAGCGCCCGCCCGGGCGUAUGGCAACGCUGAGCCAAGCUUCGGCGCCUGCGCCGAUGAAGGUGUAGCGACUAGACGGCACCCACCUAAGGCGAACGUUAUGGUGAAGGCAUAGUCCAGGGAGAGGCGAAAGUCACACAAACCGG [C82U A120C A145G C150U U176A], the reverse-splicing fitness amounted to 0.0355.
GUGCCUUGCGCCGGGAAACCACGCAAGGGAUGGUGUCAAAUUCGGCGAAACCUAAGCGCCCGCCCGGGCGUAUGGCAACGCUGAGCCAAGCUUCGGCGCCUGCGCCGAUGAAGGUGUAGCGACUAGACGGCACCCACCUAAGGCGAACGCUAUGGUGAAGGCAUAGUCAAGGGAGUGGCGAAAGUCACACAAACCGG [C82U A120C A145G C169A]: the reverse-splicing fitness was 0.00815.
The result for GUGCCUUGCGCCGGGAAACCACGCAAGGGAUGGUGUCAAAUUCGGCGAAACCUAAGCGCCCGCCCGGGCGUAUGGCAACGCUGAGCCAAGCUUCGGCGCCUGCGCCGAUGAAGGUGUAGCGACUAGACGGCACCCACCUAAGGCGAACGCUAUGGUGAAGGCAUAGUCGAGGGAGUGGCGAAAGUCACACAAACCGG [C82U A120C A145G C169G] reads 0.00711; that for GUGCCUUGCGCCGGGAAACCACGCAAGGGAUGGUGUCAAAUUCGGCGAAACCUAAGCGCCCGCCCGGGCGUAUGGCAACGCUGAGCCAAGCUUCGGCGCCUGCGCCGAUGAAGGUGUAGCGACUAGACGGCACCCACCUAAGGCGAACGCUAUGGUGAAGGCAUAGUCGAGGGAGCGGCGAAAGUCACACAAACCGG [C82U A120C A145G C169G U176C], 0.0181.
Take GUGCCUUGCGCCGGGAAACCACGCAAGGGAUGGUGUCAAAUUCGGCGAAACCUAAGCGCCCGCCCGGGCGUAUGGCAACGCUGAGCCAAGCUUCGGCGCCUGCGCCGAUGAAGGUGUAGCGACUAGACGGCACCCACCUAAGGCGAACGCUAUGGUGAAGGCAUAGUCGAGGGAGGGGCGAAAGUCACACAAACCGG [C82U A120C A145G C169G U176G]: the reverse-splicing fitness was found to be 0.00346.
In the case of GUGCCUUGCGCCGGGAAACCACGCAAGGGAUGGUGUCAAAUUCGGCGAAACCUAAGCGCCCGCCCGGGCGUAUGGCAACGCUGAGCCAAGCUUCGGCGCCUGCGCCGAUGAAGGUGUAGCGACUAGACGGCACCCACCUAAGGCGAACGCUAUGGUGAAGGCAUAGUCGAGGGAGAGGCGAAAGUCACACAAACCGG [C82U A120C A145G C169G U176A] it was 0.0152.
Regarding GUGCCUUGCGCCGGGAAACCACGCAAGGGAUGGUGUCAAAUUCGGCGAAACCUAAGCGCCCGCCCGGGCGUAUGGCAACGCUGAGCCAAGCUUCGGCGCCUGCGCCGAUGAAGGUGUAGCGACUAGACGGCACCCACCUAAGGCGAACGUUAUGGUGAAGGCAUAGUCCAGGGAGUGGCGAAAGUCACACAAACCGG [C82U A120C A145G C150U], the reverse-splicing fitness turned out to be 0.139.
For the variant GUGCCUUGCGCCGGGAAACCACGCAAGGGAUGGUGUCAAAUUCGGCGAAACCUAAGCGCCCGCCCGGGCGUAUGGCAACGCUGAGCCAAGCUUCGGCGCCUGCGCCGAUGAAGGUGUAGCGACUAGACGGCACCCACCUAAGGCGAACGCUAUGGUGAAGGCAUAGUCAAGGGAGAGGCGAAAGUCACACAAACCGG [C82U A120C A145G C169A U176A], the reverse-splicing fitness turned out to be 0.0158.
In the case of GUGCCUUGCGCCGGGAAACCACGCAAGGGAUGGUGUCAAAUUCGGCGAAACCUAAGCGCCCGCCCGGGCGUAUGGCAACGCUGAGCCAAGCUUCGGCGCCUGCGCCGAUGAAGGUGUAGCGACUAGACGGCACCCACCUAAGGCGAACGCUAUGGUGAAGGCAUAGUCAAGGGAGGGGCGAAAGUCACACAAACCGG [C82U A120C A145G C169A U176G] it was 0.00317; in that of GUGCCUUGCGCCGGGAAACCACGCAAGGGAUGGUGUCAAAUUCGGCGAAACCUAAGCGCCCGCCCGGGCGUAUGGCAACGCUGAGCCAAGCUUCGGCGCCUGCGCCGAUGAAGGUGUAGCGACUAGACGGCACCCACCUAAGGCGAACGCUAUGGUGAAGGCAUAGUCAAGGGAGCGGCGAAAGUCACACAAACCGG [C82U A120C A145G C169A U176C], 0.0219; in that of GUGCCUUGCGCCGGGAAACCACGCAAGGGAUGGUGUCAAAUUCGGCGAAACCUAAGCGCCCGCCCGGGCGUAUGGCAACGCUGAGCCAAGCUUCGGCGCCUGCGCCGAUGAAGGUGUAGCGACUAGACGGCACCCACCUAAGGCGAACGGUAUGGUGAAGGCAUAGUCCAGGGAGGGGCGAAAGUCACACAAACCGG [C82U A120C A145G C150G U176G], 0.00605.
Turning to GUGCCUUGCGCCGGGAAACCACGCAAGGGAUGGUGUCAAAUUCGGCGAAACCUAAGCGCCCGCCCGGGCGUAUGGCAACGCUGAGCCAAGCUUCGGCGCCUGCGCCGAUGAAGGUGUAGCGACUAGACGGCACCCACCUAAGGCGAACGGUAUGGUGAAGGCAUAGUCCAGGGAGCGGCGAAAGUCACACAAACCGG [C82U A120C A145G C150G U176C], the reverse-splicing fitness turned out to be 0.0157.
For the variant GUGCCUUGCGCCGGGAAACCACGCAAGGGAUGGUGUCAAAUUCGGCGAAACCUAAGCGCCCGCCCGGGCGUAUGGCAACGCUGAGCCAAGCUUCGGCGCCUGCGCCGAUGAAGGUGUAGCGACUAGACGGCACCCACCUAAGGCGAACGGUAUGGUGAAGGCAUAGUCCAGGGAGAGGCGAAAGUCACACAAACCGG [C82U A120C A145G C150G U176A], the reverse-splicing fitness worked out at 0.00924.
